Data as given in patent US20230212587A1, “Mutant Hydroxyphenylpyruvate Dioxygenase Polypeptide, Encoding Gene Thereof and Use Therefor” (Beijing Dabeinong Biotechnology Co., Ltd., priority 2019, published 2023).

What was measured:
[1] = test system: Arabidopsis thaliana T1 plants; assay: Topramezone tolerance of transgenic Arabidopsis thaliana T1 plants (pesticide damage grade by bleached leaf area, score, resistance evaluation); assay type: in vivo; conditions: for Classification and statistics of the grade of pesticide damage Grade 0 / Classification and statistics of the grade of pesticide damage Grade 1 / Classification and statistics of the grade of pesticide damage Grade 2 / Classification and statistics of the grade of pesticide damage Grade 3 / Classification and statistics of pesticide damage grade Grade 0 / Classification and statistics of pesticide damage grade Grade 1 / Classification and statistics of pesticide damage grade Grade 2 / Classification and statistics of pesticide damage grade Grade 3: number of plants (of 16) in this grade; for Classification and statistics of the grade of pesticide damage Grade 0 / Classification and statistics of the grade of pesticide damage Grade 1 / Classification and statistics of the grade of pesticide damage Grade 2 / Classification and statistics of the grade of pesticide damage Grade 3 / Scores / Resistance evaluation / Classification and statistics of pesticide damage grade Grade 0 / Classification and statistics of pesticide damage grade Grade 1 / Classification and statistics of pesticide damage grade Grade 2 / Classification and statistics of pesticide damage grade Grade 3: 7 DAT; for Scores: score for pesticide damage 0-100; for Grade 0 (number of plants) / Grade 1 (number of plants) / Grade 2 (number of plants) / Grade 3 (number of plants) / Resistance Grade / score: mutation combination, Table 8
Summary of the method: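 Eighteen days after sowing, wild-type and HPPD-transgenic T1 Arabidopsis receive a topramezone spray at 1×, 2× or 4× field rate (25–100 g ai/ha) or water. Seven days later each plant is graded by its proportion of bleached leaf area.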

soybean T1 plants = assay: Tolerance of transgenic soybean T1 plants to mesotrione; assay type: in vivo; conditions: mesotrione 210 and 420 g ai/ha, 7 DAT, compared to control vector and wild-type
Text: The Arabidopsisthaliana T1 plants into which the AsHPPDm-F372A-02 nucleotide sequence was introduced, Arabidopsis thaliana T1 plants into which the AsHPPD-02 nucleotide sequence was introduced and wild-type Arabidopsisthaliana plants (18 days after sowing) were sprayed with topramezone at four different concentrations, i.e., 25 g ai/ha (one-fold field concentration, 1×), 50 g ai/ha (two-fold field concentration, 2×), 100 g ai/ha (four-fold field concentration, 4×) and 0 g ai/ha (water, 0×) to determine the tolerance of Arabidopsisthaliana to the herbicide. The degree of damage caused by the herbicide was measured for each plant according to the proportion of bleached leaf area (the proportion of bleached leaf area=bleached leaf area/total leaf area×100%) 7 days after spraying (7 DAT): the case where there is basically no bleached phenotype is defined as grade 0, the case where the proportion of bleached leaf area is less than 50% is defined as grade 1,the case where the proportion of bleached leaf area is more than 50% is defined as grade 2, and the case where the proportion of bleached leaf area is 100% grade is defined as grade 3.
In order to further verify the tolerance effect of HPPD (F372A) on other HPPD inhibitors, the soybean T1 plants into which the AsHPPDm-F372A-02 nucleotide sequence was introduced, soybean T1 plants into which the ZmHPPDm-F372A-02 nucleotide sequence was introduced, soybean T1 plants into which the PfHPPDm-F372A-02 nucleotide sequence was introduced, soybean T1 plants into which the AsHPPDm-F372A-A110 nucleotide sequence was introduced, soybean T1 plants into which the control vector DBN11375NN was introduced in Example 8, and the wild-type soybean plants (V3-V4 at seedling stage) were sprayed as follows to detect the herbicide tolerance of each soybean plants, (1) 140 g ai/ha (2-fold field concentration, 2 ×) isoxaflutole; (2) 280 g ai/ha (4-fold field concentration, 4 ×) isoxaflutole; (3) 210 g ai/ha (2-fold field concentration, 2 ×) mesotrione; (4) 420 g ai/ha (4-fold field concentration, 4 ×) mesotrione. According to the method in point 6 of Example 1, after 7 days of spraying (7 DAT), the damage degree of each plant by the herbicide was statistically analyzed, and the scoring and resistance evaluation were carried out accordingly. […]

[2] = HPPDs from different species, topramezone 25 g ai/ha (1x)
[3] = HPPDs from different species, topramezone 100 g ai/ha (4x)

B1: AsHPPDm-F372A-02: Avena sativa HPPD mutant F372A, SEQ ID NO: 4; gene SEQ ID NO: 6 (protein)
chain: MPPTPATATGAAAAAVTPEHAARSFPRVVRVNPRSDRFPVLSFHHVELWCADAASAAGRFSFALGAPLAARSDLSTGNSAHASLLLRSGALAFLFTAPYAPPPQEAATAAATASIPSFSADAARTFAAAHGLAVRSVGVRVADAAEAFRVSVAGGARPAFAPADLGHGFGLAEVELYGDVVLRFVSYPDETDLPFLPGFERVSSPGAVDYGLTRFDHVVGNVPEMAPVIDYMKGFLGFHEFAEFTAEDVGTTESGLNSVVLANNSEAVLLPLNEPVHGTKRRSQIQTYLEYHGGPGVQHIALASNDVLRTLREMRARTPMGGFEFMAPPQAKYYEGVRRIAGDVLSEEQIKECQELGVLVDRDDQGVLLQIATKPVGDRPTFFLEMIQRIGCMEKDEVGQEYQKGGCGGFGKGNFSELFKSIEDYEKSLEVKQSVVAQKS
modifications: AsHPPDm-F372A Amido Acid Sequence
[1]; Arabidopsis thaliana T1 plants sprayed with topramezone, all tested concentrations
  resistance evaluation stated in the text: highly resistant (highly resistant plants (scores 0-15))
[1]; topramezone 25 g ai/ha (1x)
  Classification and statistics of the grade of pesticide damage Grade 0: 16
  Classification and statistics of the grade of pesticide damage Grade 1: 0
  Classification and statistics of the grade of pesticide damage Grade 2: 0
  Classification and statistics of the grade of pesticide damage Grade 3: 0
  Scores: 0
  Resistance evaluation: highly resistant (highly resistant plants (scores 0-15))
[1]; topramezone 50 g ai/ha (2x)
  Classification and statistics of the grade of pesticide damage Grade 0: 16
  Classification and statistics of the grade of pesticide damage Grade 1: 0
  Classification and statistics of the grade of pesticide damage Grade 2: 0
  Classification and statistics of the grade of pesticide damage Grade 3: 0
  Scores: 0
  Resistance evaluation: highly resistant (highly resistant plants (scores 0-15))
[1]; topramezone 100 g ai/ha (4x)
  Classification and statistics of the grade of pesticide damage Grade 0: 16
  Classification and statistics of the grade of pesticide damage Grade 1: 0
  Classification and statistics of the grade of pesticide damage Grade 2: 0
  Classification and statistics of the grade of pesticide damage Grade 3: 0
  Scores: 0
  Resistance evaluation: highly resistant (highly resistant plants (scores 0-15))
[1]; topramezone 25 g ai/ha
  Grade 0 (number of plants): 20
  Grade 1 (number of plants): 0
  Grade 2 (number of plants): 0
  Grade 3 (number of plants): 0
  Resistance Grade: Highly resistant
  score: 0
[1]; topramezone 100 g ai/ha
  Grade 0 (number of plants): 20
  Grade 1 (number of plants): 0
  Grade 2 (number of plants): 0
  Grade 3 (number of plants): 0
  Resistance Grade: Highly resistant
  score: 0
Soybean T1 plants
  tolerance to mesotrione, in words: different degrees of tolerance

B2: PfHPPDm-F372A-02: Pseudomonas fluorescens HPPD mutant F372A, SEQ ID NO: 30 (protein)
chain: MADLYENPMGLMGFEFIEFASPTPGTLEPIFEIMGFTKVATHRSKNVHLYRQGEINLILNNEPNSIASYFAAEHGPSVCGMAFRVKDSQKAYNRALELGAQPIHIDTGPMELNLPAIKGIGGAPLYLIDRFGEGSSIYDIDFVYLEGVERNPVGAGLKVIDHLTHNVYRGRMVYWANFYEKLFNFREARYFDIKGEYTGLTSKAMSAPDGMIRIPLNEESSKGAGQIEEFLMQFNGEGIQHVAFLTDDLVKTWDALKKIGMRFMTAPPDTYYEMLEGRLPDHGEPVDQLQARGILLDGSSVEGDKRLLLQIASETLMGPVFFEFIQRKGDDGFGEGNFKALFESIERDQVRRGVLTAD
modifications: PfHPPDm-F372A Amino Acid Sequence
[1]; [2]
  Classification and statistics of pesticide damage grade Grade 0: 16
  Classification and statistics of pesticide damage grade Grade 1: 0
  Classification and statistics of pesticide damage grade Grade 2: 0
  Classification and statistics of pesticide damage grade Grade 3: 0
  Scores: 0
  Resistance evaluation: highly resistant (highly resistant plants (scores 0-15))
[1]; [3]
  Classification and statistics of pesticide damage grade Grade 0: 12
  Classification and statistics of pesticide damage grade Grade 1: 4
  Classification and statistics of pesticide damage grade Grade 2: 0
  Classification and statistics of pesticide damage grade Grade 3: 0
  Scores: 8
  Resistance evaluation: highly resistant (highly resistant plants (scores 0-15))
[1]; topramezone 25 g ai/ha
  Grade 0 (number of plants): 20
  Grade 1 (number of plants): 0
  Grade 2 (number of plants): 0
  Grade 3 (number of plants): 0
  Resistance Grade: Highly resistant
  score: 0
[1]; topramezone 100 g ai/ha
  Grade 0 (number of plants): 16
  Grade 1 (number of plants): 4
  Grade 2 (number of plants): 0
  Grade 3 (number of plants): 0
  Resistance Grade: Highly resistant
  score: 7
Soybean T1 plants
  tolerance to mesotrione, in words: different degrees of tolerance

B3: ZmHPPDm-F372A-02: Zea mays HPPD mutant F372A, SEQ ID NO: 20 (protein)
chain: MPPTPTAAAAGAAVAAASAAEQAAFRLVGHRNFVRFNPRSDRFHTLAFHHVELWCADAASAAGRFSFGLGAPLAARSDLSTGNSAHASLLLRSGSLSFLFTAPYAHGADAATAALPSFSAAAARRFAADHGLAVRAVALRVADAEEAFRTSVAAGARPAFGPVDLGRGFRLAEVELYGDVVLRYVSYPDGAAGEPFLPGFEGVASPGAADYGLSRFDHIVGNVPELAPAAAYFAGFTGFHEFAEFTTEDVGTAESGLNSMVLANNSENVLLPLNEPVHGTKRRSQIQTFLDHHGGPGVQHMALASDDVLRTLREMQARSAMGGFEFMAPPTSDYYDGVRRRAGDVLTEAQIKECQELGVLVDRDDQGVLLQIAPKPVGDRPTLFLEIIQRIGCMERDEKGQEYQKGGCGGFGKGNFSQLFKSIEDYEKSLEAMQAAAAATAQGS
modifications: ZmHPPDm-F372A Amino Acid Sequence
[1]; [2]
  Classification and statistics of pesticide damage grade Grade 0: 16
  Classification and statistics of pesticide damage grade Grade 1: 0
  Classification and statistics of pesticide damage grade Grade 2: 0
  Classification and statistics of pesticide damage grade Grade 3: 0
  Scores: 0
  Resistance evaluation: highly resistant (highly resistant plants (scores 0-15))
[1]; [3]
  Classification and statistics of pesticide damage grade Grade 0: 4
  Classification and statistics of pesticide damage grade Grade 1: 12
  Classification and statistics of pesticide damage grade Grade 2: 0
  Classification and statistics of pesticide damage grade Grade 3: 0
  Scores: 25
  Resistance evaluation: moderately resistant (moderately resistant plants (scores 16-33))
Soybean T1 plants
  tolerance to mesotrione, in words: different degrees of tolerance
